Test results from patent US20220306736A1 (Y BIOLOGICS, published 2022).

Each binder was assayed against T1, hVSIG4(S)-hFc (human) (assay: western blot, 100 ng hVSIG4 short-hFc (FIG. 11B)).
T1 construct: also called VGIG4(S)-Fc; hVSIG4 short-hFc (S)
Description: (A) Binding to hVSIG4(S) and hVSIG4(L) was assayed by ELISA with the original scFv versions of the 11 human anti-VSIG4 antibodies. (B) Binding to hVSIG4(S) and hVSIG4(L) was assayed by western blotting with the 11 full-length human anti-VSIG4 antibodies. NRH: Non-reduced, heated; RH: Reduced, heated.
In each case, 100 ng of hVSIG4 long-hFc (L) and hVSIG4 short-hFc (S) were probed with the specific anti-VSIG4 antibody.

Binder	binding result
SA2455 (antibody, V domains shown) VH: QMQLVESGGGLVKPGGSLRLSCAASGFTFSDYYMSWIRQAPGKGLEWVSYISSSGSTIYYADSVKGRFTISRDNAKNSLYLQMNSLRAEDTAVYYCARPGYYYGLDVWGQGTTVTVSS VL: DIQMTQSPSTLSASVGDRVTITCRASQSISSWLAWYQQKPGIAPKLLIYQASILDSGVPSRFSGSGSGTEFTLTISSLQPDDFATYYCQQYSSLWTFGPGTKVDIK	binds
SA2283 (antibody, V domains shown) VH: QVQLVESGGGLVKPGGSLRLSCAASGFTFSDYYMSWIRQAPGKGLEWVSYISSSGSTIYYADSVKGRFTISRDNAKNSLYLQMNSLRAEDTAVYYCARRYSAYETGYFDFWGQGTLVTVSS VL: DIQMTQSPSSLSASVGDRVTITCRASQGISTYLNWYQQKPGKAPKLLIYSTSTLQTGVPSRFSGGGSGTDFTLTISSLQPEDFATYYCQQSYSAPPTFGPGTKVEIK	binds
SA2287 (antibody, V domains shown) VH: QVQLVESGGGVVQPGRSLRLSCAASGFTFSSRGMHWVRQAPGKGLEWVALIWYHGSDDSYADSVKGRFTISRDNSKNMVYLQMNSLRAEDTAVYYCANLGATDGFDIWGQGTVVTVSS VL: QSALTQPASVSGSPGQSITISCTGTSSDVSAYNYVSWYQQHPGKAPKLMIYGVSDRPSGVSFRFSGSKSGNTASLTISGLQAEDEAYYYCNSYTTSNTWVFGGGTKLTVL	binds
SA2291 (antibody, V domains shown) VH: QMQLVESGGGLVKPGGSLRLSCAASGFTFSDHYMSWIRQAPGKGLEWVSSISSGGGTIYYADSVKGRFTISRDNAKNSLYLQMNSLRAEDTAVYYCARREYDSDGHYYFDYWGQGILVTVSS VL: SYELTQPPSVLVSPGQTARITCSGDALPKQYAYWYQQKPGQAPVLVMYKDNVRPSGIPERFSGSSSGTTVTLTISRVQAEDEADYYCQSVDSSDTSVVFGGGTKLTVL	binds
SA1956 (antibody, V domains shown) VH: QVTLKESGPTLVKPTQTLTLTCTFSGFSLTTSGVAVAWIRQPPGKALEWLALIYWDGDERYSSSLKNRLTITKDTSKSQVVLTMTNMDPVDTATYYCARIRGYYDWGSYYSYGMDVWGQGTTVTVSS VL: SYELTQPLSVSVALGQTARITCGGNNIGSKNVHWYQQKPGQAPVLVIYRDSNRPSGIPERFSGSNSGNTATLTISRAQAGDEADYYCQVWDSSTHVVFGGGTKLTVL	binds
SA1957 (antibody, V domains shown) VH: QVTLRESGPTLVKPTQTLTLTCTFSGFSFNTPGEGVTWIRQPPGKALEWLALIYWDDEKHYNPSLNGRLTITKDTSKSQVVLTMTNMDPVDTATYYCARIRGYYDWGSYYSYGMDVWGQGTTITVSS VL: SYELTQPLSVSVALGQTARITCGGNNIGSKNVHWYQQKPGQAPVLVIYRDSNRPSGIPERFSGSNSGDTATLTISGAQAGDEADYYCQVWDSSTHVVFGGGTKLTVL	binds

Continued, values first:

binding result	Binder
binds	SA2285 (antibody, V domains shown) VH: QVTLRESGPTLVKPTQTLTLTCTFRGFSLNTPGMGVAWIRQPPGKALEWLGLVFWDDDKTYRPSLRNRLTITKETSKSQVVLTMTNMDPVDTATYYCARIRGYYDWGSYYSYGMDVWGQGTTVTVSS VL: SYELTQPLSVSVALGQTARITCGGNNIGSKNVHWYQQKPGQAPVLVIYRDSNRPSGIPERFSGSNSGNTATLTISGVEAGDEADYYCQVWDSNSDQYVFGTGSKVTVL
binds	SA1975 (antibody, V domains shown) VH: QVQLVESGAEIKKPGASMNVSCKASGYIFTNYYIHWVRQAPGQGLEWIGIIDPSGGSTTYAQKFQHRVTMTSDTSTSTVYMELIGLGSEDTAVYYCARDYWGSLDYWGQGTLVTVSS VL: NFMLTQPHSVSESPGKTVTISCTRSSGSIASNYVQWYQQRPGSAPTIVIYENYLRPSEVPDRFSGSIDSSSNSASLTISGLKTEDEGDYYCQSYDSRNRNYVFGTGTKVTVL
binds	SA2290 (antibody, V domains shown) VH: QMQLVESGAEVKKPGASVKVSCKASGYTFTSYGISWVRQAPGQGLEWMGWISAYNGNTNYAQKLQGRVTMTTDTSTSTAYMELRSLRSEDTAVYYCARDYWGSLDHWGQGALVTVSS VL: NFMLTQPHSVSGSPGKTVTISCTRSSGSIDINYVQWYQQRPGSAPTIIIYEDSQRTSGVPDRFSGSIDRSSNSASLTISGLKTEDEGDYYCQSYDSRNRNYVFGTGTKVTVL
binds	SA2386 (antibody, V domains shown) VH: QVQLVESGGGLVKPGGSLRLSCAASGSTFRVAWVNWVRQAPGKGLEWVGRIKSNSDGGTTDYATPMKDRFIISRDDSKNTVFLQMNSLRAEDTAVYYCARHGDANAYYYGMDVWGQGTKVTVSS VL: QSALTQPASVSGSPGQSITISCTGTSSDVGGYNYISWYQQHPGKAPRLLIYDVSDRPSGVSNRFSGSKSANTASLTISGLQAEDEADYYCSSYASSSTLYVFGTGTKVTVL
binds	SA2390 (antibody, V domains shown) VH: QVQLVESGGGLVQPGRSLRLSCAASGFTFDDYAMHWVRQAPGKGLEWISGISWNSGNIVYADSVKGRFTISRDNAKNSLYLQMNSLRAEDTAVYYCARETALAFDMWGPGTMVTVSS VL: DIQMTQSPSSVSASVGDRVTITCRASQGISYWLAWYQQKPGIAPKLLIFASSRLHSGVPSRFNGSGSGTDFTLTINSLQPEDFATYYCLQATSFPYTFGQGTKLEIK
